Results: patent publication US20180258163A1 (Chugai, published 2018)
Substitutions are numbered along the chain they refer to. Where two headings read alike, the source gives them in different places.

Columns and labels:
[1] = biological target: T1, human IL-8 (human, UniProt P10145 23-99, limits assumed); assay: SPR pH 7.4 40C; 50C 1 week in PBS against initial
T1 construct: also called hIL-8
T1 sequence: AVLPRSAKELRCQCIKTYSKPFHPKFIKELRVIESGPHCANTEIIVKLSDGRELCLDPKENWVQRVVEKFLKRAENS
Method: The levels of human IL-8 binding to the modified antibodies were analyzed using BIACORE T200 (GE Healthcare). Measurements were carried out at 40° C. by using 0.05% tween20, 40 mM ACES, and 150 mM NaCl at pH 7.4 as the running buffer.
An appropriate amount of Protein A/G (PIERCE) was immobilized onto the Sensor chip CM4 (GE Healthcare) by the amine coupling method and the antibodies of interest was captured. Next, a diluted human IL-8 solution or a running buffer (used as a reference solution) was injected to allow interaction of the antibodies captured onto the sensor chip with human IL-8. The running buffer was also used to dilute human IL-8. To regenerate the sensor chip, 25 mM NaOH and 10 mM glycine-HCl (pH 1.5) were used. The measured binding level of human IL-8 and the amount of antibodies captured at that binding level were extracted using the BIACORE T200 Evaluation Software (GE Healthcare).
The amount of human IL-8-binding per 1000 RU of the amount of antibody captured was calculated for the initial samples and the samples for the thermal acceleration test. Furthermore, the ratio of the human IL-8-binding level for the initial samples to that for samples of the thermal acceleration test was calculated.

[2] = biological target: T1, human IL-8; assay: SPR pH 7.4 40C
Method: (§1) The following two running buffers were used, and measurements were carried out at the respective temperatures: (1) 0.05% tween20, 40 mM ACES, 150 mM NaCl, pH 7.4, 40° C.: and (2) 0.05% tween20, 40 mM ACES, 150 mM NaCl, pH 5.8, 37° C.
(§2) An appropriate amount of Protein A/G (PIERCE) was immobilized onto the Sensor chip CM4 (GE Healthcare) by the amine coupling method and the antibodies of interest were captured. Next, a diluted human IL-8 solution or a running buffer (used as a reference solution) was injected to allow interaction of the antibodies captured onto the sensor chip with human IL-8. For the running buffer, either one of the above-mentioned solutions was used, and the respective buffers were also used to dilute human IL-8. To regenerate the sensor chip, 25 mM NaOH and 10 mM glycine-HCl (pH 1.5) were used. KD (M) of each antibody for human IL-8 was calculated based on the association rate constant kon (1/Ms) and dissociation rate constant koff (1/s) which are kinetic parameters calculated from sensorgrams obtained by the measurements. The BIACORE T200 Evaluation Software (GE Healthcare) was used to calculate each parameter.

[3] = biological target: T1, human IL-8; assay: SPR pH 5.8 37C
Method: as §1, §2

[4] = biological target: T2, human IgE (human, UniProt P01854-1 1-428); assay: SPR, IgE on chip, Ab analyte, pH 7.4, 37C
T2 construct: whole IgE; also called hIgE
Method: (§3) Affinities of Ab2 and Ab3 for human IgE at pH 7.4 and pH 5.8 were evaluated as follows. The binding activity (dissociation constant KD (M)) of anti-hIgE antibodies toward hIgE were evaluated using BIACORE T200 (GE Healthcare). Measurements were carried out using the following two buffers as the running buffers: (1) 1.2 mM CaCl₂/0.05% tween 20, 20 mM ACES, 150 mM NaCl, pH 7.4; and (2) 1.2 mM CaCl₂/0.05% tween 20, 20 mM ACES, 150 mM NaCl, pH 5.8.
(§4) Then, to regenerate the sensor chip, 10 mM glycine-HCl at pH 1.5 was injected. All measurements were carried out at 37° C. Association rate constants ka (1/Ms) and dissociation rate constants kd (1/s) were calculated by analyzing the measurement results by curve-fitting using the BIACORE T200 Evaluation Software (GE Healthcare), and dissociation constants KD (M) were calculated based on those values.

[5] = biological target: T2, human IgE; assay: SPR, IgE on chip, Ab analyte, pH 5.8, 37C
Method: as §3, §4

[6] = biological target: T3, soluble human FcγRIIb (human, UniProt P31994 43-217, limits assumed); assay: SPR, Ab-IgE complex over captured hFcγRIIb, pH 7.4, 25C
T3 construct: soluble His-tagged form; also called hFcγRIIb
T3 sequence (looked up): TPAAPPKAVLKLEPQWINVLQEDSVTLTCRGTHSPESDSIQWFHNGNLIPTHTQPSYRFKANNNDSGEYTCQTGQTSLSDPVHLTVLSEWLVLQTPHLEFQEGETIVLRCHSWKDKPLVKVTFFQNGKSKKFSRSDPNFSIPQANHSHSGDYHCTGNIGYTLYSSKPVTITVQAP
Method: (§5) Regarding the produced Fc region variant-containing antibodies, binding assays between soluble human FcγRIIb and antigen-antibody complexes were performed using BIACORE T200 (GE Healthcare). Soluble human FcγRIIb (NCBI accession NM_004001.3) was produced in the form of a His-tagged molecule by a method known in the art. An appropriate amount of an anti-His antibody was fixed onto Sensor chip CM5 (GE Healthcare) by the amine coupling method using a His capture kit (GE Healthcare) to capture human FcγRIIb. Next, an antibody-antigen complex and a running buffer (as a reference solution) were injected, and interaction was allowed to take place with the human FcγRIIb captured onto the sensor chip. 20 mM N-(2-Acetamido)-2-aminoethanesulfonic acid, 150 mM NaCl, 1.2 mM CaCl₂, and 0.05% (w/v) Tween 20 at pH 7.4 was used as the running buffer, and the respective buffer was also used to dilute the soluble human FcγRIIb. To regenerate the sensor chip, 10 mM glycine-HCl at pH 1.5 was used. All measurements were carried out at 25° C. Analyses were performed based on binding (RU) calculated from sensorgrams obtained by the measurements, and relative values when the binding amount of Ab1H/Ab1L (original Ab1) was defined as 1.00 are shown. To calculate the parameters, the BIACORE T100 Evaluation Software (GE Healthcare) was used.

[7] = biological target: T2, human IgE; assay: SPR, Ab captured, IgE analyte, pH 7.4, 25C
Method: (§6) An appropriate amount of Protein A/G (ACTIGEN) was fixed onto Sensor chip CM4 (GE Healthcare) by the amine coupling method to capture the antibodies of interest. Next, human IgE was made to interact with the antibodies captured onto the sensor chip by injecting a diluted IgE solution and a running buffer (used as a reference solution). For the running buffer, either of the buffers (1) and (2) above was used, and human IgE was diluted using the respective buffer. To regenerate the sensor chip, 10 mM glycine-HCl at pH 1.5 was used. All measurements were carried out at 25° C. KD (M) for human IgE was calculated for each antibody based on the association rate constant ka (1/Ms) and dissociation rate constant kd (1/s), which are kinetic parameters calculated from the sensorgrams obtained by the measurements. The BIACORE T100 Evaluation Software (GE Healthcare) was used to calculate each parameter.

[8] = biological target: T3, soluble human FcγRIIb; assay: SPR, Ab-IgE complex over captured hFcγRIIb, pH 7.4, 25C; remark: listed apart in the source
Method: as §5

[9] = biological target: T3, soluble human FcγRIIb; assay: as above; remark: listed apart in the source
Method: as §5

[10] = biological target: T2, human IgE; assay: SPR, Ab captured, IgE analyte, pH 5.8, 25C
Method: as §6

T2 sequence (P01854 other isoform, or with tags, fused parts or gaps): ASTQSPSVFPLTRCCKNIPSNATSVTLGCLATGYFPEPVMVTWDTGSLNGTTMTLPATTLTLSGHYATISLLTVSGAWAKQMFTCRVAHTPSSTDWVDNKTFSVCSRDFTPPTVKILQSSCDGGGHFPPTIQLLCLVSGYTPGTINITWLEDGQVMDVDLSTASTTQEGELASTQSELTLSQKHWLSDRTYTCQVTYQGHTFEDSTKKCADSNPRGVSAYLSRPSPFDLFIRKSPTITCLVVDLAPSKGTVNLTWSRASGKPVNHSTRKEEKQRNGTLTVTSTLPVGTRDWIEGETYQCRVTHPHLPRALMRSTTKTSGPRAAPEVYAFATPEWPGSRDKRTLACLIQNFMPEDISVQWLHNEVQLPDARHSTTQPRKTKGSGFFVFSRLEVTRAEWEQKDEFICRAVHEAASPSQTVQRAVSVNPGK

B1: H1009/L395 (antibody, human IgG1, kappa)
heavy: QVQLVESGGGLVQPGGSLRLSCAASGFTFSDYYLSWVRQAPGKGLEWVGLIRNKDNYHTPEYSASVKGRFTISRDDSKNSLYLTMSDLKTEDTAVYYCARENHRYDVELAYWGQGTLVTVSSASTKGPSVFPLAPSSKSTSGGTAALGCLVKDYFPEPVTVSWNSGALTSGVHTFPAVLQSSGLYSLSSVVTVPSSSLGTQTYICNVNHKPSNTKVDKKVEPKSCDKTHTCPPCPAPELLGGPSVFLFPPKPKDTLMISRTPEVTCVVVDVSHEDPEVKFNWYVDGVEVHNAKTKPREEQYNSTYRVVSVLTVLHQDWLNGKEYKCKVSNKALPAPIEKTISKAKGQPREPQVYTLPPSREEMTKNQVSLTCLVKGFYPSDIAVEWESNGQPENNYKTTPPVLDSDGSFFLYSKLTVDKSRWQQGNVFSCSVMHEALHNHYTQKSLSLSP
light: DIQMTQSPSSLSASVGDRVTITCRASEIIYSYLAWYQQKPGKAPKLLIYKAKTHADGVPSRFSGSGSGTDFTFTISSLQPEDIATYYCKHHFGFPRTFGQGTKVEIKRTVAAPSVFIFPPSDEQLKSGTASVVCLLNNFYPREAKVQWKVDNALQSGNSQESVTEQDSKDSTYSLSSTLTLSKADYEKHKVYACEVTHQGLSSPVTKSFNRGEC
notes: also called H1009/L0395; H1009/L395-IgG1
Ratio of IL-8 Amount (Thermal Acceleration/Initial) [1]: 0.64

B2: H1023/L0395 (antibody, human IgG1, kappa, name in Kabat numbering, V domains shown)
VH: QVQLVESGGGLVQPGGSLRLSCAASGFTFSDYYLSWVRQAPGKGLEWVGLIRNKDNGYHPEYSASVKGRFTISRDDSKNSLYLTMSDLKTEDTAVYYCARENHRYDVELAYWGQGTLVTVSS
VL: DIQMTQSPSSLSASVGDRVTITCRASEIIYSYLAWYQQKPGKAPKLLIYKAKTHADGVPSRFSGSGSGTDFTFTISSLQPEDIATYYCKHHFGFPRTFGQGTKVEIKR
Kd [2]: 0.076 nM
Kd [3]: 0.092 µM
koff [3]: 0.018 s⁻¹

B3: H1023/L0442 (antibody, human IgG1, kappa, name in Kabat numbering, V domains shown)
VH: B2 VH
VL: B2 VL with S31E
Kd [2]: 0.12 nM
Kd [3]: 7.1 µM
koff [3]: 0.017 s⁻¹

B4: Ab2 (antibody, human IgG1, kappa, V domains shown)
VH: QSVEESGGRLVTPGTPLTLTCTVSGFSLSSFNMDWVRQAPGEGLEWIGAVSTGGSAYYAKWAKGRFTISKTSTAVDLKITSPTTEDTATYFCARVDSSGWGYFDLWGQGTLVTVSS
VL: AIEMTQTPFSVSAAVGGTVTINCQASENIYSSLAWYQQKPGQPPKLLIYYASNLASGVSSRFKGSGSGTDFTLTISDLECADAATYYCQSYYFISSTDFNAFGGGTEVVVKR
Kd [4]: 1.5 nM
koff [4]: 0.0045 s⁻¹
kon [4]: 2.9e+06 M⁻¹ s⁻¹
Kd [5]: 97 nM
koff [5]: 0.053 s⁻¹
kon [5]: 550000 M⁻¹ s⁻¹

B5: Ab3 (antibody, human IgG1, kappa, V domains shown)
VH: QSLEESGGDLVKPGASLTLTCTTSVFDLSSYYWICWVRQAPGKGLEWIACVYATSGSTDYATWAKGRLTISKASSTTVTLQMTSLTAADTATYFCARGGIYGGDGFNLWGPGTLVTVSS
VL: AFELTQTPASVEAAVGGTVTINCQASESISNWLAWYQQKPGQPPKLLIYRASTLTSGVPSRFKGSGSGTEFTLTISDLECADAATYYCQSYDPSIIDGFAFGGGTEVVVKR
Kd [4]: 4.9 nM
koff [4]: 0.0079 s⁻¹
kon [4]: 1.6e+06 M⁻¹ s⁻¹
Kd [5]: 230 nM
koff [5]: 0.033 s⁻¹
kon [5]: 140000 M⁻¹ s⁻¹

B6: Ab1 (antibody, human IgG1, kappa)
heavy: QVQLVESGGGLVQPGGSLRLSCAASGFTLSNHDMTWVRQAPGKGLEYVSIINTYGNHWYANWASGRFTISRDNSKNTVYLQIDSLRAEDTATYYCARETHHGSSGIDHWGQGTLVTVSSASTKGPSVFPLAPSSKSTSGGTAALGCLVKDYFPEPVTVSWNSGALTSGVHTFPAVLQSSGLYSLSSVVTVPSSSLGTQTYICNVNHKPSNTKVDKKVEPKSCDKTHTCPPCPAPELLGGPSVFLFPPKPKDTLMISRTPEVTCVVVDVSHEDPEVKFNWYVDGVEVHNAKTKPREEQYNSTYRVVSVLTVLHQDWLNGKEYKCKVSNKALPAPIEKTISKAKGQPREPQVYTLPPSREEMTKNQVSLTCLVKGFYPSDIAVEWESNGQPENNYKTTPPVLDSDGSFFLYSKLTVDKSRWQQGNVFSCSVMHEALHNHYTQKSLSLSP
light: DIQMTQSPSSVSASVGDRVTITCQASESIYSGLAWYQQKPGQPPKLLIYDHSTLASGVPSRFSGSGSGTEYALTISSLQPEDFATYYCQHADYAHHSDNVFGGGTKVEIKRTVAAPSVFIFPPSDEQLKSGTASVVCLLNNFYPREAKVQWKVDNALQSGNSQESVTEQDSKDSTYSLSSTLTLSKADYEKHKVYACEVTHQGLSSPVTKSFNRGEC
notes: also called Ab1H/Ab1L; original Ab1; copies: 2 + 2
BIACORE fold (relative binding, original Ab1=1.00) [6]: 1 fold
Kd [7]: 2.3 nM
koff [7]: 0.006 s⁻¹
kon [7]: 2.7e+06 M⁻¹ s⁻¹
BIACORE fold (relative binding, original Ab1=1.00) [8]: 1 fold
BIACORE fold (relative binding, original Ab1=1.00) [9]: 1 fold
Kd [10]: 2400 nM
koff [10]: 0.039 s⁻¹
kon [10]: 16000 M⁻¹ s⁻¹

B7: H1000/L0442 (antibody, human IgG1, kappa, name in Kabat numbering, V domains shown)
VH: B2 VH with D31E, G57H, Y58H, H59T
VL: B2 VL with S31E
Kd [3]: 71 µM

B8: H1040/L0442 (antibody, human IgG1, kappa, name in Kabat numbering, V domains shown)
VH: B2 VH with D31E, G57H, Y58H
VL: B2 VL with S31E
Ratio of IL-8 Amount (Thermal Acceleration/Initial) [1]: 0.49

B9: H1050/L0395 (antibody, human IgG1, kappa, name in Kabat numbering, V domains shown)
VH: B2 VH with D31E, G57Y, Y58H, H59T
VL: B2 VL
Kd [3]: 7.7 µM
